Measured values reported in the Human Domainome abundance scans (Beltran et al. 2025).
± gives the uncertainty stated by the source.

B1: Glucocorticoid receptor, residues 419 to 494; numbered along this chain, P04150 (parent)
chain: KLCLVCSDEASGCHYGVLTCGSCKVFFKRAVEGQHNYLCAGRNDCIIDKIRRKNCPACRYRKCLQAGMNLEARKTK

Variants of: B1
Assay: abundance fitness (aPCA) (normalised: wild type 0, dead -1); higher = more abundant; growth selection in yeast, the domain comes from the species named
Conditions: Homo sapiens

Abundance fitness: each site, then its substitutions
G12: W -0.153 ± 0.053 | Q -0.034 ± 0.048 | F -0.083 ± 0.071 | H -0.096 ± 0.11 | L -0.166 ± 0.034 | K -0.08 ± 0.047 | M -0.071 ± 0.042 | A -0.101 ± 0.041 | P -0.318 ± 0.07 | E -0.057 ± 0.044 | C -0.194 ± 0.078 | D -0.003 ± 0.058 | Y -0.206 ± 0.065 | T -0.069 ± 0.048 | N -0.093 ± 0.071 | S -0.063 ± 0.04 | R -0.074 ± 0.034 | V -0.166 ± 0.035
S11: Q 0.047 ± 0.053 | L 0.033 ± 0.036 | H 0.008 ± 0.064 | C -0.102 ± 0.07 | F -0.127 ± 0.088 | D 0.021 ± 0.049 | A -0.043 ± 0.036 | E 0.054 ± 0.044 | V -0.005 ± 0.037 | M -0.015 ± 0.049 | N 0.018 ± 0.07 | G -0.076 ± 0.036 | W -0.236 ± 0.05 | Y -0.174 ± 0.089 | K -0.005 ± 0.045 | P -0.096 ± 0.065
C13: V 0.015 ± 0.035 | D -0.008 ± 0.069 | T 0.003 ± 0.038 | F -0.005 ± 0.074 | E 0.04 ± 0.04 | G -0.154 ± 0.033 | W -0.055 ± 0.041 | R -0.025 ± 0.031 | H 0.112 ± 0.061 | S -0.037 ± 0.037 | L -0.007 ± 0.034 | M -0.027 ± 0.038 | Q 0.001 ± 0.049 | I 0.112 ± 0.064 | P -0.07 ± 0.047 | A -0.02 ± 0.038 | K -0.018 ± 0.043
C6: W -1.03 ± 0.18 | R -0.852 ± 0.085 | V -1.06 ± 0.15 | A -0.964 ± 0.15 | E -0.941 ± 0.14 | G -0.934 ± 0.11 | P -0.931 ± 0.17 | S -1.22 ± 0.25 | I -0.751 ± 0.16 | L -0.992 ± 0.12 | Q -0.805 ± 0.16 | K -1.01 ± 0.22 | Y -0.653 ± 0.13 | T -1.14 ± 0.24
S7: T -0.02 ± 0.051 | C -0.046 ± 0.072 | Y -0.109 ± 0.053 | F -0.045 ± 0.076 | E 0.012 ± 0.042 | I -0.725 ± 0.16 | K 0.032 ± 0.046 | M -0.06 ± 0.051 | N -0.111 ± 0.065 | A 0.098 ± 0.038 | W -0.115 ± 0.043 | V -0.374 ± 0.046 | P -0.757 ± 0.11 | Q 0.029 ± 0.046 | G 0.012 ± 0.034 | R -0.048 ± 0.031 | D 0 ± 0.053 | H 0.021 ± 0.09 | L -0.017 ± 0.037
Y15: A -0.085 ± 0.041
D8: N -0.147 ± 0.089 | S -0.034 ± 0.038 | C -0.105 ± 0.072 | L -0.646 ± 0.071 | T -0.195 ± 0.056 | Q -0.035 ± 0.051 | R -0.237 ± 0.036 | V -0.219 ± 0.039 | Y -0.409 ± 0.084 | K -0.27 ± 0.069 | A 0.037 ± 0.039 | I -0.68 ± 0.2 | W -0.521 ± 0.064 | E -0.033 ± 0.048 | H -0.203 ± 0.094 | M -0.216 ± 0.067
V5: T -0.742 ± 0.11 | Y -0.631 ± 0.19 | H -0.848 ± 0.33 | W -0.952 ± 0.14 | G -0.732 ± 0.076 | L -0.611 ± 0.064 | I -0.007 ± 0.051 | S -1.03 ± 0.17 | K -1.15 ± 0.32 | M -0.681 ± 0.095 | P -1.1 ± 0.23 | R -0.669 ± 0.077 | N -0.703 ± 0.23
A10: W -0.625 ± 0.074 | R -0.453 ± 0.042 | T -0.161 ± 0.048 | Y -0.272 ± 0.08 | I -0.15 ± 0.075 | Q -0.111 ± 0.05 | P 0.004 ± 0.049 | N -0.274 ± 0.07 | G -0.122 ± 0.042 | L -0.066 ± 0.036 | F -0.362 ± 0.075 | V -0.305 ± 0.047 | H -0.235 ± 0.072 | C -0.147 ± 0.056 | S -0.079 ± 0.041 | K -0.408 ± 0.092 | D -0.251 ± 0.12 | E -0.287 ± 0.053
E9: S 0.032 ± 0.036 | F -0.115 ± 0.071 | W 0.062 ± 0.041 | I -0.038 ± 0.065 | M 0.042 ± 0.042 | H -0.052 ± 0.075 | D -0.015 ± 0.077 | V 0.031 ± 0.035 | N 0.12 ± 0.063 | P 0.074 ± 0.047 | Q -0.017 ± 0.056 | T 0.089 ± 0.045 | L 0.036 ± 0.033 | Y -0.105 ± 0.072 | K 0.105 ± 0.057 | R 0.04 ± 0.032 | C 0.083 ± 0.052
H14: D -0.016 ± 0.057 | N -0.086 ± 0.093 | M -0.163 ± 0.049 | A -0.077 ± 0.035 | G -0.187 ± 0.031 | R -0.137 ± 0.032 | S -0.076 ± 0.039 | K -0.096 ± 0.049 | F -0.088 ± 0.11 | V -0.367 ± 0.042 | P -0.24 ± 0.056 | Q -0.077 ± 0.048 | E -0.102 ± 0.041 | C -0.128 ± 0.068 | Y -0.068 ± 0.075 | I -0.184 ± 0.069 | T -0.161 ± 0.049 | L -0.125 ± 0.034
